Assay results reported in US20100260765A1 (AstraZeneca / MedImmune, published 2010).
Substitutions are numbered along the chain they refer to.

B1: 22B8 (antibody, V domains shown)
VH: QLQLQESGPGLVKPSETLSLTCTVSGGSISSRYYYWGWVRQPPGKGLEWIGTIYYSGHTYYNPSLKTRVTISVDTSKNQFSLKLISVTAADTAVYYCATQQLVLYYFDFWGQGTLVTVSS
VL: EIVLTQSPGTLSLSPGERAALSCRASQSISSSYLAWYQQRPGQAPRLLIYGASSRATGIPDRFNGSGSGTDFTLTISRLEPEDFAVYYCQQFGSSITFGQGTRLEIK
notes: Fully human monoclonal antibody from a XenoMouse hybridoma (IgG2 or IgG4 strain), purified
B2: 27D10 (antibody, V domains shown)
VH: B1 VH with Y33S, Y34D, V39I, H58S, Y60F, T67S, I85S, T99R, F109Y
VL: not shown
notes: Purified fully human monoclonal antibody from XenoMouse hybridoma (IgG2 or IgG4 strains); also called MAb 27D10
B3: 33C3 (antibody, V domains shown)
VH: QVQLVESGGGLVKPGESLRLSCAASGFTFSDYYMSWIRQAPGKGLEWVSYISHGGSTIYYADSVKGRFTISRDNAKNSLYLQMNSLRVEDTAVYFCARDDFWSGYYFNWFDPWGQGALVTVSS
VL: DIQMTQYPLSLSASVGDRVTITCRASQSISSFLNWYHQKPGKAPKLLIYGTSSLQSGVPSRFSGSGSGTDFTLTISSLQPEDFATYYCQQTYSIPLTFGGGTNVEIK
notes: Purified fully human monoclonal antibody from XenoMouse hybridoma (IgG2 or IgG4 strains); also called MAb 33C3
B4: 33C3 (antibody, V domains shown)
VH: B3 VH
VL: B3 VL
notes: as for B1

Tests used:
[1] = target: T1, human KDR (human, UniProt P35968 20-1356); experiment: FACS competition on 293T/human KDR transfectants; antibody 5 ug/mL first, then competitor VEGF165 50 ng/mL; bound VEGF165 detected
T1 construct: whole, on cells; also called VEGFR2; endogenously-expressed KDR in HUVEC cells
Method: (§1) Transfected cells were then seeded at 50,000 cells/well and incubated with 5 μg/mL of candidate antibody for one hour at 4° C. […] After washing, the cells were incubated with Cy5-conjugated rabbit anti-goat antibody plus 7AAD for 15 minutes at 4° C.

[2] = target: T2, soluble KDR Ig4-7 domain (human, UniProt P35968 328-764); experiment: ELISA, KDR Ig4-7 coat (1:1 diln.), antibody 1 ug/mL
T2 construct: domain: Ig4-7 domain; also called b-KDRIg4-7-myc-his; Ig4-7 domain of KDR; not shown: myc-his tag of the pSecTag construct
Summary of the method: (§2)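 Coat wells with the recombinant receptor protein, add purified antibody, then detect the bound antibody by ELISA. Isotype IgG1 and IgG4 are run alongside as controls.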

[3] = target: T1, human KDR; experiment: cell-based or functional assay
[4] = target: T3, cynomolgus KDR (cynomolgus monkey, UniProt A0A2K5VE63 20-1356); experiment: FACS on Cyno KDR/293T transfectants, antibody 5 ug/mL
T3 construct: whole, on cells; also called Cyno KDR

[5] = target: T4, whole KDR-ECD (Cat. # 676490, Calbiochem) (human, UniProt P35968 20-764); experiment: ELISA, KDR-ECD coat 5 ug/mL, antibody 0.01 ug/mL
T4 construct: extracellular domain; Bought soluble protein; also called soluble KDR; VEGF Receptor 2 D1-7
Summary of the method: as §2

[6] = target: T1, human KDR; experiment: FACS titration of purified antibody on HUVEC cells (FACS Kd)
Method: The binding affinities of the purified antibodies for endogenously-expressed KDR in HUVEC cells was measured. HUVEC cells were seeded at 150,000 cells/well and incubated with titrations of purified antibody for 4 hours at 4° C. The cells were then washed and incubated with goat anti-human IgG-Fc-Cy5+5 μg/mL 7-Amino-Actinomycin (7AAD) for 30 minutes at 4° C. Bound KDR was detected using FACS analysis.

[7] = target: T1, human KDR; experiment: cell-based or functional assay; remark: listed apart in the source
[8] = target: T1, human KDR; experiment: cell-based or functional assay; remark: listed apart in the source
[9] = target: T2, soluble KDR Ig4-7 domain; experiment: ELISA, KDR Ig4-7 coat (1:1 diln.), antibody 0.1 ug/mL
Summary of the method: as §2

[10] = target: T1, human KDR; experiment: FACS competition on 293T/human KDR transfectants; antibody 5 ug/mL first, then competitor VEGF165 50 ng/mL; inhibition of VEGF binding
Method: as §1

[11] = target: T2, soluble KDR Ig4-7 domain; experiment: ELISA, KDR Ig4-7 coat (1:1 diln.), antibody 0.01 ug/mL
Summary of the method: as §2

[12] = target: T5, mouse KDR (Flk-1)/Fc (Cat. #443-KD/CF, R&D Systems, Inc.) (mouse, UniProt P35918 20-762); experiment: ELISA, Flk-1 coat 5 ug/mL, antibody 0.01 ug/mL
T5 construct: Bought reagent; also called mouse VEGFR2; KDR mouse ortholog; not shown: Fc of the bought fusion protein
Summary of the method: as §2

[13] = target: T5, mouse KDR (Flk-1)/Fc (Cat. #443-KD/CF, …); experiment: ELISA, Flk-1 coat 5 ug/mL, antibody 1 ug/mL
Summary of the method: as §2

[14] = target: T5, mouse KDR (Flk-1)/Fc (Cat. #443-KD/CF, …); experiment: ELISA, Flk-1 coat 5 ug/mL, antibody 0.1 ug/mL
Summary of the method: as §2

[15] = target: T4, whole KDR-ECD (Cat. # 676490, …); experiment: ELISA, KDR-ECD coat 5 ug/mL, antibody 1 ug/mL
Summary of the method: as §2

[16] = target: T4, whole KDR-ECD (Cat. # 676490, …); experiment: ELISA, KDR-ECD coat 5 ug/mL, antibody 0.1 ug/mL
Summary of the method: as §2

[17] = target: human KDR on cells (human, UniProt P35968 20-1356); experiment: cell-based or functional assay
[18] = target: T6, KDR (antigen used as analyte in the Biacore assay) (UniProt P35968 20-764, limits assumed); experiment: SPR, Biacore 2000; antibody amine-coupled on CM4 chip, KDR as analyte; global 1:1 fit; 23 C
T6 construct: also called the antigen KDR
Method: Each purified anti-KDR antibody was immobilized on a CM4 sensor chip within a Biacore 2000 using standard amine coupling. Immobilization levels were kept between 250 and 350 RU. The concentration of KDR was determined by UV-VIS spectroscopy using a molar absorptivity at 280 nm of 110, 440 M⁻¹ cm⁻¹, which was calculated from the sequence of the protein using a method developed by Pace et al. (G. R. Grimsley and C. N. Pace (2003) in Current Protocols in Protein Science (John Wiley & Sons, Inc.), 3.1.1-3.1.9). The antigen KDR was diluted to a starting concentration of 52 nM and tested in a 3-fold dilution series in triplicate. The running buffer contained HBS-P with 0.1 mg/ml BSA and binding responses were collected at 23 degrees C. […] The response data were globally fit with a simple 1:1 interaction model. The number shown in parentheses is the standard error in the last significant figure.

T2 sequence (P35968 328-764): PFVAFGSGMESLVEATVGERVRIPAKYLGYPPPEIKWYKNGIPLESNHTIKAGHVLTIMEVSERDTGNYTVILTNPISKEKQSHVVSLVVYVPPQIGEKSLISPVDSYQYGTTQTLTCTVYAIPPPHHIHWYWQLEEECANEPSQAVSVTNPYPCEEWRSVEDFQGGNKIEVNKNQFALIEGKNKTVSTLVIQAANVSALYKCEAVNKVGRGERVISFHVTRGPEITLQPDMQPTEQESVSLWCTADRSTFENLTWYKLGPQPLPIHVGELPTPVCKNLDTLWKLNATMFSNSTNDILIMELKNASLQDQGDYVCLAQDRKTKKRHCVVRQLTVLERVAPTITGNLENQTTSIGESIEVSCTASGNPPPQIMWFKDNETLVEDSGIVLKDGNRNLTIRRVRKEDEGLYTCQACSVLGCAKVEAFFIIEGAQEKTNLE
human KDR on cells, sequence (P35968 20-1356): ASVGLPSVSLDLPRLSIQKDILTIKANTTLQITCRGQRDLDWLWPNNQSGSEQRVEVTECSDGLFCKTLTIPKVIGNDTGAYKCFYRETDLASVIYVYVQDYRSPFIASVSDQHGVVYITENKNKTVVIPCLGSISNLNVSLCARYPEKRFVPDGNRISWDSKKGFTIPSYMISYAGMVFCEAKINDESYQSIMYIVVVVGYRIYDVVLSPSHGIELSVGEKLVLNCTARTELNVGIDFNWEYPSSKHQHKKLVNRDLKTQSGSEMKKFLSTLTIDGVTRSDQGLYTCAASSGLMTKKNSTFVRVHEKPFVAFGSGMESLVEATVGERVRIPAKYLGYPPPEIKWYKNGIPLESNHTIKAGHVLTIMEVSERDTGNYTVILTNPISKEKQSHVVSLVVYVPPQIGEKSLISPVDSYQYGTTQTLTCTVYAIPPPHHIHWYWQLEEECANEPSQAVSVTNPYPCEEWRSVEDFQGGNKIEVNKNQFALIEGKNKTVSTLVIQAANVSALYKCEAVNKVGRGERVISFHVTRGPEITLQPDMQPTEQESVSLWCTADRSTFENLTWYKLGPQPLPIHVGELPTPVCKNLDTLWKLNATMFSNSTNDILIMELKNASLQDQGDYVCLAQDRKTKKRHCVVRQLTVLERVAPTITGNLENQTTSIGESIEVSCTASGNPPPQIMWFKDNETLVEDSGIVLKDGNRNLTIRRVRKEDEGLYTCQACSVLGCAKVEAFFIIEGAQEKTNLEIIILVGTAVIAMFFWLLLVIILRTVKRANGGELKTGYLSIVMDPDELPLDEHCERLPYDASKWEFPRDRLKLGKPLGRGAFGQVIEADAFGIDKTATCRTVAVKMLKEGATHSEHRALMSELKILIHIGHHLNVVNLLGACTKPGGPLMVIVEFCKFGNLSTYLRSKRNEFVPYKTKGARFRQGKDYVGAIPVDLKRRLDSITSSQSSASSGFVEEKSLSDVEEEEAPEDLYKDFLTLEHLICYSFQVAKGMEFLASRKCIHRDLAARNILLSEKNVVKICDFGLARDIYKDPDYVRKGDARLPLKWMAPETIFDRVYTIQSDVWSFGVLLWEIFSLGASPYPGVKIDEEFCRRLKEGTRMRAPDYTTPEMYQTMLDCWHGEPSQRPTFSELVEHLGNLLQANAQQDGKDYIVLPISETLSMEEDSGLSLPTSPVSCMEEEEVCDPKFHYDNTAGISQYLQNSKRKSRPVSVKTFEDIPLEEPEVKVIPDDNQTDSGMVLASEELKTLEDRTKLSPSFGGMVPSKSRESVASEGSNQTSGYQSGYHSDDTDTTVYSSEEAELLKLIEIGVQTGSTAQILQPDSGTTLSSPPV
T1 sequence (P35968 20-1356): as above
T5 sequence (P35918 20-762 limits assumed): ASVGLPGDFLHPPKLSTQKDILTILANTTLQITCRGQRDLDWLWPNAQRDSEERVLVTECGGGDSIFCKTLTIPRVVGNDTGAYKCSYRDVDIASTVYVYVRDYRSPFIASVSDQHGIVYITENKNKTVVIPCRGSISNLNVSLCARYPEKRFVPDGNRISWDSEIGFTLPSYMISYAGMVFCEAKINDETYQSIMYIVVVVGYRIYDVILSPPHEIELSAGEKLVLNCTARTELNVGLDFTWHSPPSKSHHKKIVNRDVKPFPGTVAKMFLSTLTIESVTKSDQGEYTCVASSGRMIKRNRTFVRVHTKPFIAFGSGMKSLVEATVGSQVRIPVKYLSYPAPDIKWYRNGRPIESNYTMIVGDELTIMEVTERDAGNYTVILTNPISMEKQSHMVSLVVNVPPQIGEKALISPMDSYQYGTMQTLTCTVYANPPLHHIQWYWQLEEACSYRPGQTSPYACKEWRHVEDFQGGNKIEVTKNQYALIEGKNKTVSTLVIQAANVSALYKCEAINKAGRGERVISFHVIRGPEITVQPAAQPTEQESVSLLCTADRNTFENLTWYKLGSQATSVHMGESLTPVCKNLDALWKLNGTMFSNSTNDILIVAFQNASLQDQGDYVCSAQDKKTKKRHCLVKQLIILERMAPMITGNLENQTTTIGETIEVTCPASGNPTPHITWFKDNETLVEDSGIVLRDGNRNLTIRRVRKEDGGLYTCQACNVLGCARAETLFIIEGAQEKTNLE
T4 sequence (P35968 20-764): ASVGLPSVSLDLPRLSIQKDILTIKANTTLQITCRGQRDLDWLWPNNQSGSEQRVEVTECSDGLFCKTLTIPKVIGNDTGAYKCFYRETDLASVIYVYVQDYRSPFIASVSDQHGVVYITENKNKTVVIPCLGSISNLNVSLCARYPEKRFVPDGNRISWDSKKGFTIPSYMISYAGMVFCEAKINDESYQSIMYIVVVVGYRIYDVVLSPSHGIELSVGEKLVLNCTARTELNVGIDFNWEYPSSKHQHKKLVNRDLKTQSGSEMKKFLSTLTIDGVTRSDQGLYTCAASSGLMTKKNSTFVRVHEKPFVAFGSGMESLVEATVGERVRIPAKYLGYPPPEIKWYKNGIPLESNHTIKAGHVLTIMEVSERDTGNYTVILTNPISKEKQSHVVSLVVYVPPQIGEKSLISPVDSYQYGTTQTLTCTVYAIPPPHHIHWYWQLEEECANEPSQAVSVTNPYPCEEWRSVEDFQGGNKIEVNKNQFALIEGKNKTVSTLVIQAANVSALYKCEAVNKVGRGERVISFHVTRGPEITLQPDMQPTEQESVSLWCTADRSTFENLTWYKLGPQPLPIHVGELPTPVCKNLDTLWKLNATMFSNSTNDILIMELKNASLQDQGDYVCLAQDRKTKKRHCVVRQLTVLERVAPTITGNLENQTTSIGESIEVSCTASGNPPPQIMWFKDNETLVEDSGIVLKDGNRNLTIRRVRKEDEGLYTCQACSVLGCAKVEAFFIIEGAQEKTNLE
T6 sequence (P35968 20-764 limits assumed): as the sequence (P35968 20-764) above
T3 sequence (A0A2K5VE63 entry or part of it): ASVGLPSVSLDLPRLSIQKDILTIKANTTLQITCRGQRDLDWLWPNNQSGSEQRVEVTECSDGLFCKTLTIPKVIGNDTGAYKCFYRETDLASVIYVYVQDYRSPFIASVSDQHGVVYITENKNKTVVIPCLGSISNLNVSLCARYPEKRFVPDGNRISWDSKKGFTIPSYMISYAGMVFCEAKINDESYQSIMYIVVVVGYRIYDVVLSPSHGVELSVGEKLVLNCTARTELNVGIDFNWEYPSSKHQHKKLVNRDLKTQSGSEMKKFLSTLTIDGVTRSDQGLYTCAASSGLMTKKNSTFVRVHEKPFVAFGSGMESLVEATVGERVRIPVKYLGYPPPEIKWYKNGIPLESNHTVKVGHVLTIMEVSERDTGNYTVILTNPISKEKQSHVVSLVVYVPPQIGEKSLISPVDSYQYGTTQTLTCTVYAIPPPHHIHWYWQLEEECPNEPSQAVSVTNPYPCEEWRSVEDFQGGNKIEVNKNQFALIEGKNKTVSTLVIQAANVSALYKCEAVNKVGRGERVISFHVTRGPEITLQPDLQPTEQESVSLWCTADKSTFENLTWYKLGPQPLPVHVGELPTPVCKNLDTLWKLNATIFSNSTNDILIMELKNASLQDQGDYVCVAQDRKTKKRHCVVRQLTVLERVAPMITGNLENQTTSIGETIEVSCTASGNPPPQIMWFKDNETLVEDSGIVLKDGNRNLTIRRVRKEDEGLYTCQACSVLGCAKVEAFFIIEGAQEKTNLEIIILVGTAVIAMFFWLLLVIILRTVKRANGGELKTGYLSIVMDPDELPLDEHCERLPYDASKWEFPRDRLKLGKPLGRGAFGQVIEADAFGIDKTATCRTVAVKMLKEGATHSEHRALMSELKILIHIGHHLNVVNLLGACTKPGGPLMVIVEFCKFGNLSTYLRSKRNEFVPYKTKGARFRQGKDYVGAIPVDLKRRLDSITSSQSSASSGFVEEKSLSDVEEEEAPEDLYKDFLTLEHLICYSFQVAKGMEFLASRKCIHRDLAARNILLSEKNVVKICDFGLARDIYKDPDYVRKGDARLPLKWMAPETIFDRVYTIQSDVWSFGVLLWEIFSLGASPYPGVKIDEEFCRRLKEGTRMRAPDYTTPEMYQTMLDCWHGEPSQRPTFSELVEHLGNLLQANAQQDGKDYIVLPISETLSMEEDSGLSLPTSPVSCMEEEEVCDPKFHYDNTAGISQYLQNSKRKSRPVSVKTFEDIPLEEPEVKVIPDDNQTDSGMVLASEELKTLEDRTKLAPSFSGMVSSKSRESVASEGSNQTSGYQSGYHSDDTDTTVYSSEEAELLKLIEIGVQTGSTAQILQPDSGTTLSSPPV

Binder | FACS Geometric Mean Fluorescence (bound VEGF165) [1] | ELISA reading [2] | KDR tyrosine phosphorylation in HUVEC, EC50 (nM), Average [3] [nM] | KDR tyrosine phosphorylation in HUVEC, EC50 (nM), N = 1 [3] [nM] | KDR tyrosine phosphorylation in HUVEC, EC50 (nM), N = 2 [3] [nM] | KDR tyrosine phosphorylation in HUVEC, Maximum Inhibition at 100 nM (% Inhibition), Average [3] [%] | KDR tyrosine phosphorylation in HUVEC, Maximum Inhibition at 100 nM (% Inhibition), N = 1 [3] [%] | KDR tyrosine phosphorylation in HUVEC, Maximum Inhibition at 100 nM (% Inhibition), N = 2 [3] [%] | FACS Geometric Mean Fluorescence [4] | ELISA reading [5] | Kd [6] [nM] | HUVEC survival, Maximum Inhibition at 50 nM (% Inhibition), Average [7] [%] | HUVEC survival, Maximum Inhibition at 50 nM (% Inhibition), N = 1 [7] [%] | HUVEC survival, Maximum Inhibition at 50 nM (% Inhibition), N = 2 [7] [%] | 6-keto Prostaglandin F1α release, EC50 (nM), Average [8] [nM] | 6-keto Prostaglandin F1α release, EC50 (nM), N = 1 [8] [nM] | 6-keto Prostaglandin F1α release, EC50 (nM), N = 2 [8] [nM] | 6-keto Prostaglandin F1α release, Maximum Inhibition (% Inhibition), Average [8] [%] | 6-keto Prostaglandin F1α release, Maximum Inhibition (% Inhibition), N = 1 (200 nM) [8] [%] | 6-keto Prostaglandin F1α release, Maximum Inhibition (% Inhibition), N = 2 (333 nM) [8] [%] | further results
B1 | 120 | 0.08 | 3.1 | 2.7 | 3.4 | 77 | 75 | 79 | 103 | 0.075 | 1.8 | 87 | 80 | 95 | 5.3 | 5.1 | 5.6 | 70 | 63 | 76 | ELISA reading [9]: 0.078; % Inhibition [10]: 7%; ELISA reading [11]: 0.074; ELISA reading [12]: 1.2; ELISA reading [13]: 3.21; ELISA reading [14]: 2.94; ELISA reading [15]: 1.91; ELISA reading [16]: 0.089
B2 | – | – | – | – | – | – | – | – | – | – | – | – | – | – | – | – | – | – | – | – | % Inhibition (Average) of VEGF-C-mediated KDR activity, antibody 1 nM [17]: 51%; % Inhibition (Average) of VEGF-C-mediated KDR activity, antibody 10 nM [17]: 76%; % Inhibition (Average) of VEGF-C-mediated KDR activity, antibody 100 nM [17]: 80%; % Inhibition (N = 1) of VEGF-C-mediated KDR activity, antibody 1 nM [17]: 52%; % Inhibition (N = 1) of VEGF-C-mediated KDR activity, antibody 10 nM [17]: 73%; % Inhibition (N = 1) of VEGF-C-mediated KDR activity, antibody 100 nM [17]: 76%; % Inhibition (N = 2) of VEGF-C-mediated KDR activity, antibody 1 nM [17]: 50%; % Inhibition (N = 2) of VEGF-C-mediated KDR activity, antibody 10 nM [17]: 79%; % Inhibition (N = 2) of VEGF-C-mediated KDR activity, antibody 100 nM [17]: 84%; Kd [18]: 4.91 nM; koff [18]: 0.000254 s⁻¹; kon [18]: 51800 M⁻¹ s⁻¹
B3 | – | – | – | – | – | – | – | – | – | – | – | – | – | – | – | – | – | – | – | – | % Inhibition (Average) of VEGF-C-mediated KDR activity, antibody 1 nM [17]: 66%; % Inhibition (Average) of VEGF-C-mediated KDR activity, antibody 10 nM [17]: 88%; % Inhibition (Average) of VEGF-C-mediated KDR activity, antibody 100 nM [17]: 85%; % Inhibition (N = 1) of VEGF-C-mediated KDR activity, antibody 1 nM [17]: 71%; % Inhibition (N = 1) of VEGF-C-mediated KDR activity, antibody 10 nM [17]: 87%; % Inhibition (N = 1) of VEGF-C-mediated KDR activity, antibody 100 nM [17]: 84%; % Inhibition (N = 2) of VEGF-C-mediated KDR activity, antibody 1 nM [17]: 61%; % Inhibition (N = 2) of VEGF-C-mediated KDR activity, antibody 10 nM [17]: 89%; % Inhibition (N = 2) of VEGF-C-mediated KDR activity, antibody 100 nM [17]: 86%; Kd [18]: 0.91 nM; koff [18]: 9.3e-05 s⁻¹; kon [18]: 102000 M⁻¹ s⁻¹
B4 | 126 | 0.094 | 1.2 | 1.2 | 1.1 | 85 | 83 | 86 | 108 | 0.09 | 1 | 101 | 106 | 95 | 3.9 | 3.5 | 4.4 | 85 | 76 | 94 | ELISA reading [9]: 0.088; % Inhibition [10]: 2%; ELISA reading [11]: 0.073; ELISA reading [12]: 1.25; ELISA reading [13]: 3.48; ELISA reading [14]: 3.04; ELISA reading [15]: 1.11; ELISA reading [16]: 0.153
